Assay results reported in US20220074941A1, “HSP90 COMBINATION THERAPY” (Sloan-Kettering Institute for Cancer Research, priority 2011, published 2022).

B1: STRN (protein, UniProt O43815 1-780, looked up)
Striatin: MDEQAGPGVFFSNNHPGAGGAKGLGPLAEAAAAGDGAAAAGAARAQYSLPGILHFLQHEWARFEVERAQWEVERAELQAQIAFLQGERKGQENLKKDLVRRIKMLEYALKQERAKYHKLKYGTELNQGDMKPPSYDSDEGNETEVQPQQNSQLMWKQGRQLLRQYLQEVGYTDTILDVKSKRVRALLGFSSDVTDREDDKNQDSVVNGTEAEVKETAMIAKSELTDSASVLDNFKFLESAAADFSDEDEDDDVDGREKSVIDTSTIVRKKALPDSGEDRDTKEALKEFDFLVTSEEGDNESRSAGDGTDWEKEDQCLMPEAWNVDQGVITKLKEQYKKERKGKKGVKRPNRSKLQDMLANLRDVDELPSLQPSVGSPSRPSSSRLPEHEINRADEVEALTFPPSSGKSFIMGADEALESELGLGELAGLTVANEADSLTYDIANNKDALRKTWNPKFTLRSHFDGIRALAFHPIEPVLITASEDHTLKMWNLQKTAPAKKSTSLDVEPIYTFRAHKGPVLCVVMSSNGEQCYSGGTDGLIQGWNTTNPNIDPYDSYDPSVLRGPLLGHTDAVWGLAYSAAHQRLLSCSADGTLRLWNTTEVAPALSVFNDTKELGIPASVDLVSSDPSHMVASFSKGYTSIFNMETQQRILTLESNVDTTANSSCQINRVISHPTLPISITAHEDRHIKFYDNNTGKLIHSMVAHLEAVTSLAVDPNGLYLMSGSHDCSIRLWNLESKTCIQEFTAHRKKFEESIHDVAFHPSKCYIASAGADALAKVFV
B2: SDPR (protein, UniProt O95810 2-425, looked up)
Caveolae-associated protein 2: GEDAAQAEKFQHPGSDMRQEKPSSPSPMPSSTPSPSLNLGNTEEAIRDNSQVNAVTVLTLLDKLVNMLDAVQENQHKMEQRQISLEGSVKGIQNDLTKLSKYQASTSNTVSKLLEKSRKVSAHTRAVKERMDRQCAQVKRLENNHAQLLRRNHFKVLIFQEENEIPASVFVKQPVSGAVEGKEELPDENKSLEETLHTVDLSSDDDLPHDEEALEDSAEEKVEESRAEKIKRSSLKKVDSLKKAFSRQNIEKKMNKLGTKIVSVERREKIKKSLTSNHQKISSGKSSPFKVSPLTFGRKKVREGESHAENETKSEDLPSSEQMPNDQEEESFAEGHSEASLASALVEGEIAEEAAEKATSRGSNSGMDSNIDLTIVEDEEEESVALEQAQKVRYEGSYALTSEEAERSDGDPVQPAVLQVHQTS
B3: PTPLAD1 (protein, UniProt Q9P035 1-362, looked up)
Very-long-chain …: MENQVLTPHVYWAQRHRELYLRVELSDVQNPAISITENVLHFKAQGHGAKGDNVYEFHLEFLDLVKPEPVYKLTQRQVNITVQKKVSQWWERLTKQEKRPLFLAPDFDRWLDESDAEMELRAKEEERLNKLRLESEGSPETLTNLRKGYLFMYNLVQFLGFSWIFVNLTVRFCILGKESFYDTFHTVADMMYFCQMLAVVETINAAIGVTTSPVLPSLIQLLGRNFILFIIFGTMEEMQNKAVVFFVFYLWSAIEIFRYSFYMLTCIDMDWKVLTWLRYTLWIPLYPLGCLAEAVSVIQSIPIFNETGRFSFTLPYPVKIKVRFSFFLQIYLIMIFLGLYINFRHLYKQRRRRYGQKKKKIH
B4: PHB (protein, UniProt P35232 2-272, looked up)
Prohibitin 1: AAKVFESIGKFGLALAVAGGVVNSALYNVDAGHRAVIFDRFRGVQDIVVGEGTHFLIPWVQKPIIFDCRSRPRNVPVITGSKDLQNVNITLRILFRPVASQLPRIFTSIGEDYDERVLPSITTEILKSVVARFDAGELITQRELVSRQVSDDLTERAATFGLILDDVSLTHLTFGKEFTEAVEAKQVAQQEAERARFVVEKAEQQKKAAIISAEGDSKAAELIANSLATAGDGLIELRKLEAAEDIAYQLSRSRNITYLPAGQSVLLQLPQ
B5: PLBD1 (protein, UniProt Q6P4A8 39-553, looked up)
Phospholipase B-like 1: GVYYATAYWMPAEKTVQVKNVMDKNGDAYGFYNNSVKTTGWGILEIRAGYGSQTLSNEIIMFVAGFLEGYLTAPHMNDHYTNLYPQLITKPSIMDKVQDFMEKQDKWTRKNIKEYKTDSFWRHTGYVMAQIDGLYVGAKKRAILEGTKPMTLFQIQFLNSVGDLLDLIPSLSPTKNGSLKVFKRWDMGHCSALIKVLPGFENILFAHSSWYTYAAMLRIYKHWDFNVIDKDTSSSRLSFSSYPGFLESLDDFYILSSGLILLQTTNSVFNKTLLKQVIPETLLSWQRVRVANMMADSGKRWADIFSKYNSGTYNNQYMVLDLKKVKLNHSLDKGTLYIVEQIPTYVEYSEQTDVLRKGYWPSYNVPFHEKIYNWSGYPLLVQKLGLDYSYDLAPRAKIFRRDQGKVTDTASMKYIMRYNNYKKDPYSRGDPCNTICCREDLNSPNPSPGGCYDTKVADIYLASQYTSYAISGPTVQGGLPVFRWDRFNKTLHQGMPEVYNFDFITMKPILKLDIK
B6: GPS2 (protein, UniProt Q13227 1-327, looked up)
G protein pathway suppressor 2: MPALLERPKLSNAMARALHRHIMMERERKRQEEEEVDKMMEQKMKEEQERRKKKEMEERMSLEETKEQILKLEEKLLALQEEKHQLFLQLKKVLHEEEKRRRKEQSDLTTLTSAAYQQSLTVHTGTHLLSMQGSPGGHNRPGTLMAADRAKQMFGPQVLTTRHYVGSAAAFAGTPEHGQFQGSPGGAYGTAQPPPHYGPTQPAYSPSQQLRAPSAFPAVQYLSQPQPQPYAVHGHFQPTQTGFLQPGGALSLQKQMEHANQQTGFSDSSSLRPMHPQALHPAPGLLASPQLPVQMQPAGKSGFAATSQPGPRLPFIQHSQNPRFYHK
B7: CSDE1 (protein, UniProt O75534 1-798, looked up)
Cold shock domain-containing …: MSFDPNLLHNNGHNGYPNGTSAALRETGVIEKLLTSYGFIQCSERQARLFFHCSQYNGNLQDLKVGDDVEFEVSSDRRTGKPIAVKLVKIKQEILPEERMNGQVVCAVPHNLESKSPAAPGQSPTGSVCYERNGEVFYLTYTPEDVEGNVQLETGDKINFVIDNNKHTGAVSARNIMLLKKKQARCQGVVCAMKEAFGFIERGDVVKEIFFHYSEFKGDLETLQPGDDVEFTIKDRNGKEVATDVRLLPQGTVIFEDISIEHFEGTVTKVIPKVPSKNQNDPLPGRIKVDFVIPKELPFGDKDTKSKVTLLEGDHVRFNISTDRRDKLERATNIEVLSNTFQFTNEAREMGVIAAMRDGFGFIKCVDRDVRMFFHFSEILDGNQLHIADEVEFTVVPDMLSAQRNHAIRIKKLPKGTVSFHSHSDHRFLGTVEKEATFSNPKTTSPNKGKEKEAEDGIIAYDDCGVKLTIAFQAKDVEGSTSPQIGDKVEFSISDKQRPGQQVATCVRLLGRNSNSKRLLGYVATLKDNFGFIETANHDKEIFFHYSEFSGDVDSLELGDMVEYSLSKGKGNKVSAEKVNKTHSVNGITEEADPTIYSGKVIRPLRSVDPTQTEYQGMIEIVEEGDMKGEVYPFGIVGMANKGDCLQKGESVKFQLCVLGQNAQTMAYNITPLRRATVECVKDQFGFINYEVGDSKKLFFHVKEVQDGIELQAGDEVEFSVILNQRTGKCSACNVWRVCEGPKAVAAPRPDRLVNRLKNITLDDASAPRLMVLRQPRGPDNSMGFGAERKIRQAGVID

Legend:
[1] = system: Hsp90 complexes in Mia-PaCa-2 cell extract; assay: Nano-LC-MS/MS of PU-beads pull-downs; format: binding, human; conditions: protein identified in PU-beads pull-down of Mia-PaCa-2 cell extract; QSTAR-Elite QTof MS
Outline: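 They came from PU-bead pull-downs of pre-cleared lysates (control beads, overnight, 4 °C), eluted by boiling in 2% SDS, gel-separated and run by data-dependent nano-ESI QTof MS/MS.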

[2] = system: Hsp90 complexes in K562 cell extract; assay: Nano-LC-MS/MS of PU-beads pull-downs; format: binding; conditions: protein identified in PU-beads pull-down of K562 cell extract, QSTAR-Elite QTof MS
Outline: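 Proteins were identified by data-dependent nano LC-MS/MS (QTof, ESI) and Mascot searching (p<0.05), then reported as spectral counts and coverage via Scaffold. Inputs were PU-bead versus control-bead pull-downs from lysate pre-cleared with control beads overnight at 4 °C, eluted by boiling in 2% SDS.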

Molecule | Number of Assigned Spectra, Mia-Paca 2 [1] | Number of Assigned Spectra, K562 Prep 1 [2] | Number of Assigned Spectra, K562 Prep 2 [2]
B1 | 0 | 5 | 1
B2 | 4 | 0 | 0
B3 | 0 | 2 | 0
B4 | 0 | 5 | 0
B5 | 2 | 0 | 0
B6 | 0 | 5 | 0
B7 | 0 | 4 | 0
